Experimental data from patent US20200407442A1 (WUXI BIOLOGICS IRELAND, published 2020).

B1: 1.53.3-uAb-IgG4k (antibody, V domains shown)
VH: QVQLQQWGAGLLKPSETLSLTCGVYGGSFSGYYWSWIRQPPGMGLEWIGEINHRGNTNYNPSLKSRVTISEDTSKNQFSLRLSSVTAADTAVYFCTRGEDYSDYDYYGDFWGQGTLVTVSS
VL: EIVLTQSPATLSLSQGERATLSCRASQSISSYLAWYQQKPGQAPRLLIYAASNRATGIPARFSGSGSGTDFTLTISSLEPEDFAIYYCQQRSNWPLTFGGGTKVEIK
notes: Fully human antibody from OMT rats; IgG4 kappa by its name
B2: 3.40.19-uAb-IgG4L (antibody, V domains shown)
VH: QLQLQESGPGLVKPSETLSLTCTVSGDSISSTSYYWGWIRQPPGKGLEWIGSFYYSGSTYYNPSLKSRVTISVDTSKNQFSLKLNSVTAADTAVYYCARMQLWSYDVDVWGQGTTVTVSS
VL: QSALTQPASVSGSPGQSITISCTGTSSDVGGYDYVAWYQQHPGKVPKLMIYDVSERPSGVSNRFSGSKSGNTASLTISGLQAEDEADYYCSSYTSTTTLVVFGGGTKLSVL
notes: Fully human antibody from OMT rats; IgG4 lambda by its name; also called 3.40.19-uAb-hIgG4L

How the values were obtained:
Experiment in all cases: ELISA, antibody coated, LAG-3 D12.mFc mutant in supernatant, normalised to control mutants
[1] = molecular target: T1, human LAG-3-ECD.D12.mFc mutant P72A (human, UniProt P18627 37-252)
T1 construct: Alanine scanning mutant; construct limits as for m26
T1 chain: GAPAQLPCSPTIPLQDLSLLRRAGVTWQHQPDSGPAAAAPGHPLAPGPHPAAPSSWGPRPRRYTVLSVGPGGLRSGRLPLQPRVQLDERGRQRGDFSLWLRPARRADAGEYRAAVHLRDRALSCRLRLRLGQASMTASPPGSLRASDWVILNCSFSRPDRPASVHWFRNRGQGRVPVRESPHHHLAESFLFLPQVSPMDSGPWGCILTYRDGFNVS
Outline: (§1)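 Antibody 1.53.3-uAb-IgG4k or 3.40.19-uAb-hIgG4L coated at 2 μg/mL, then exposed to supernatant containing quantified LAG-3 D12.mFc mutants. Detection with HRP anti-mFc (1:5000). Absorbance normalized to mean of control mutants; binding fold change <0.75 set as epitope cutoff.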

[2] = molecular target: T2, human LAG-3-ECD.D12.mFc mutant R163A (human, UniProt P18627 37-252)
T2 construct: Alanine scanning mutant; construct limits as for m26
T2 chain: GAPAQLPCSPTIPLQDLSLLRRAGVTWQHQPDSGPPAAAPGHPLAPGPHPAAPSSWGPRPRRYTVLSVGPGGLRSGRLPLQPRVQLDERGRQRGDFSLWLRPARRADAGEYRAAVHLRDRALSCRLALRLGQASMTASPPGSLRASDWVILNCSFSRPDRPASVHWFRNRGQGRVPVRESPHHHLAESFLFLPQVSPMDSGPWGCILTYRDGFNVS
Outline: as §1

[3] = molecular target: T3, human LAG-3-ECD.D12.mFc mutant G130A (human, UniProt P18627 37-252)
T3 construct: Alanine scanning mutant; construct limits as for m26
T3 chain: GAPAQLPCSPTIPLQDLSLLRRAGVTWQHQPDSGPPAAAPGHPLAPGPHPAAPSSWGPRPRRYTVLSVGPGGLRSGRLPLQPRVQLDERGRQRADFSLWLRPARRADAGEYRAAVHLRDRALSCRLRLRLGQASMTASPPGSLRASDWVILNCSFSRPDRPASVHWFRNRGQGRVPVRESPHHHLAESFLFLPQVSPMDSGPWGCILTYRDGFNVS
Outline: as §1

[4] = molecular target: T4, human LAG-3-ECD.D12.mFc mutant T100A (human, UniProt P18627 37-252)
T4 construct: Alanine scanning mutant; construct limits as for m26
T4 chain: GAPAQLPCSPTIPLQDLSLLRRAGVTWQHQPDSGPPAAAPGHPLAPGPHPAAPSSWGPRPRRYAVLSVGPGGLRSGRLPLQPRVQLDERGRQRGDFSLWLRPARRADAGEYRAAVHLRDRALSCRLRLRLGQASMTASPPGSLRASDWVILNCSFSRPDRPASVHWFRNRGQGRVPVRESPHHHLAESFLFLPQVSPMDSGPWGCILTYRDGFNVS
Outline: as §1

[5] = molecular target: T5, human LAG-3-ECD.D12.mFc mutant L136A (human, UniProt P18627 37-252)
T5 construct: Alanine scanning mutant; construct limits as for m26
T5 chain: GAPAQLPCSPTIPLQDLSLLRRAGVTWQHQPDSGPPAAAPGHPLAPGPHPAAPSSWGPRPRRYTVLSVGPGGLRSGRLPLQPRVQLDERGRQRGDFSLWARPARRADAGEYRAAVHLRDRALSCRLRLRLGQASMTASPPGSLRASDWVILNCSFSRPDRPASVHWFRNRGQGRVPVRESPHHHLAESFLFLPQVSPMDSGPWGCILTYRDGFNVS
Outline: as §1

[6] = molecular target: T6, human LAG-3-ECD.D12.mFc mutant P138A (human, UniProt P18627 37-252)
T6 construct: Alanine scanning mutant; construct limits as for m26
T6 chain: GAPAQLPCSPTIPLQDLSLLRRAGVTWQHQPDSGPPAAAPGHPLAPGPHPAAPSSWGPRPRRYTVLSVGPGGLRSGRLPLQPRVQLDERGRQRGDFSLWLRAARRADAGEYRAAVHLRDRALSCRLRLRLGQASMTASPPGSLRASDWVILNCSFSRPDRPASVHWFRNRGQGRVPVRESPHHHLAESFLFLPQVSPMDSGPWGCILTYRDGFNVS
Outline: as §1

[7] = molecular target: T7, human LAG-3-ECD.D12.mFc mutant V151A (human, UniProt P18627 37-252)
T7 construct: Alanine scanning mutant; construct limits as for m26
T7 chain: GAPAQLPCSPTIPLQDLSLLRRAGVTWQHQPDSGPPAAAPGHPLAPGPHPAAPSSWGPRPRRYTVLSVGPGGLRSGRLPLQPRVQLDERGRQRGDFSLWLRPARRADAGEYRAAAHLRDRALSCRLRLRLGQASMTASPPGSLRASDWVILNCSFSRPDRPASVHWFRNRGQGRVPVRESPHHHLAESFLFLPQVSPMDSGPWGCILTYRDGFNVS
Outline: as §1

Fold Change [1]	Fold Change [2]	Fold Change [3]	Fold Change [4]	Fold Change [5]	Fold Change [6]	Fold Change [7]	Binder
0.743							B1
	0.655	0.102	0.738	0.043	0.106	0.043	B2
